The source of these data is PMC6127644.

In assay [1] the target is endogenous NMDAR of mouse primary neurons and microglia (mouse (endogenous in primary neurons and microglia)) (UniProt P35438). The assay is described as follows: proximity ligation; in situ PLA on primary neurons from non-transgenic control embryos; percent of cells with red dots and dots per cell counted (Figure 5C,D).
Assay [2] shares this target. The assay is described as follows: proximity ligation; in situ PLA on primary neurons from APP_(Sw,Ind) transgenic embryos; percent of cells with red dots and dots per cell counted (Figure 5C,D).
The target of assay [3] is NMDAR reconstituted from GluN1Rluc and GluN2B (human) (UniProt Q05586). The assay is described as follows: FRET or BRET; BRET^2 saturation in HEK-293T cells: constant GluN1-RLuc and GluN2B cDNA, increasing NCS1-GFP^2 cDNA; 5 uM Deep Blue C. (BRET reads energy transfer from a luciferase to a nearby fluorophore.)
Assay [4] has as its target endogenous NMDAR of mouse primary neurons and microglia (mouse (endogenous in primary neurons and microglia)) (UniProt P35438). The assay is described as follows: proximity ligation; in situ PLA on primary microglia from non-transgenic control mice; percent of cells with red dots and dots per cell counted (Figure 6B,C).
Assay [5] has the same target. The assay is described as follows: proximity ligation; in situ PLA on primary microglia from APP_(Sw,Ind) transgenic mice; percent of cells with red dots and dots per cell counted (Figure 6B,C).
The target of assay [6] is GluN1Rluc expressed without GluN2 (human) (UniProt Q05586). The assay is described as follows: FRET or BRET; BRET^1 saturation in HEK-293T cells: constant GluN1Rluc cDNA (0.3 ug) without GluN2, increasing cDNA of the YFP-fused calcium sensor.

In assay [1], “endogenous NCS1 of mouse primary neurons and microglia (from UniProt Q8BNY6 1-190) (natural protein)” registered a PLA clusters per cell (clusters per cell) of 2 and a percent of neurons with PLA complexes of 21%. In assay [2], this molecule displayed a PLA clusters per cell (clusters per cell) of 5.5 and a percent of neurons with PLA complexes of 68%.

For “NCS1GFP^2 fusion protein (from UniProt P62166 1-190) (natural protein)”, in assay [3], the BRET50 was found to be 35.

On to “endogenous calmodulin of mouse primary neurons and microglia (from UniProt P0DP26 1-149) (natural protein)”, for which the PLA red dots per cell containing dots (red dots/cell containing dots) in assay [4] was found to be 3; in assay [5], 6. Also, the percent of microglial cells with PLA complexes in assay [4] came out at 35%; in assay [5] it was 65%. The molecule also yielded a percent of neurons with PLA complexes in assay [1] of 77%.

In the case of “NCS1YFP fusion protein (from UniProt P62166 1-190) (natural protein)”, the BRET50 in assay [6] is 30.

Take “CaM-YFP fusion protein (from UniProt P0DP23 1-149) (natural protein)”: the BRET50 in assay [6] worked out at 3.5.

B1: endogenous calneuron-1 of mouse primary neurons (natural protein)
chain: MRLPEQPGDGKPENETKGDQETPERGEEPRRSPAPDFPTWEKMPFHHVTAGLLYKGNYLNRSLSAGSDSEQLANISVEELDEIREAFRVLDRDGNGFISKQELGMAMRSLGYMPSEVELAIIMQRLDMDGDGQVDFDEFMTILGPKLVSSEGRDGFLGNTIDSIFWQFDMQRVTLEELKHILYHAFRDHLTMKDIENIIINEEESLNETSGNCQTEFEGVHSQKQNRQTCVRKSLICAFAMAFIISVMLIAANQILRSGME
In assay [1], B1 gave a percent of neurons with PLA complexes of 14%.
